Consider 8 molecules from patent US11795460B2, “Compositions and methods for TTR gene editing and treating ATTR amyloidosis” (Intellia Therapeutics, Inc., priority 2017, dated 2023).

This data set deals with human TTR. The data set is described as follows: Serum human TTR ELISA in humanized TTR mice (Table 26). Format: in vivo, mouse. As to conditions: for Serum TTR(% TSS): Table 26, serum human TTR, LNP Formulation Numbers 6-16, 1 mg/kg (total RNA content). As for the experimental part:
Blood was collected and the serum was isolated as indicated. The total mouse TTR serum levels were determined using a Mouse Prealbumin (Transthyretin) ELISA Kit (Aviva Systems Biology, Cat. OKIA00111); rat TTR serum levels were measured using a rat specific ELISA kit (Aviva Systems Biology catalog number OKIA00159); human TTR serum levels were measured using a human specific ELISA kit (Aviva Systems Biology catalog number OKIA00081); each according to manufacture's protocol. Briefly, sera were serial diluted with kit sample diluent to a final dilution of 10,000-fold, or 5,000-fold when measuring human TTR in mouse sera. 100 ul of the prepared standard curve or diluted serum samples were added to the ELISA plate, incubated for 30 minutes at room temperature then washed 3 times with provided wash buffer. 100 uL of detection antibody was then added to each well and incubated for 20 minutes at room temperature followed by 3 washes. 100 uL of substrate is added then incubated for 10 minutes at room temperature before the addition of 100 uL stop solution. The absorbance of the contents was measured on the Spectramax M5 plate reader with analysis using SoftmaxPro version 7.0 software. Serum TTR levels were quantitated off the standard curve using 4 parameter logistic fit and expressed as ug/mL of serum or percent knockdown relative control (vehicle treated) animals.
The level of human TTR in serum was measured in the mice provided formulation numbers 6-8, 10-13, and 15-16. FIG. 14A is a repeat of FIG. 13 provided for comparison purposes. Knockdown of serum human TTR was detected for each formulation tested, which correlated with the amount of editing detected in liver (See FIG. 14A vs 14B, Table 26).
In another set of experiments, humanized TTR mice were dosed with LNP formulations across a range of doses with guides G000480, G000488, G000489 and G000502. The formulations contained Cas9 mRNA (SEQ ID NO: 1) in a 1:1 ratio by weight to the guide. The LNPs contained Lipid A, Cholesterol, DSPC, and PEG2k-DMG in a 50:38:9:3 molar ratio, respectively, and having a N:P ratio of 6. Dosing was at 1, 0.3, 0.1, or 0.03 mg/kg (n=5/group). The LNPs were prepared using the cross-flow procedure described above and purified and concentrated using PD-10 columns and Amicon centrifugal filter units, respectively. Liver editing results were determined using primers designed to amplify the region of interest for NGS analysis and serum human TTR levels were measured as described above. Results for liver editing are shown in FIG. 26A and serum human TTR levels in FIG. 26B-C.
(§1) In another set of experiments, humanized TTR mice were dosed with LNP formulations across a range of doses with guides G000481, G000482, G000486 and G000499. The formulations contained Cas9 mRNA (SEQ ID NO: 1) in a 1:1 ratio by weight to the guide. […] Dosing was at 1, 0.3, or 0.1 mg/kg (n=5/group). The LNPs were prepared using the cross-flow procedure described above and purified and concentrated using PD-10 columns and Amicon centrifugal filter units, respectively. Liver editing results were determined using primers designed to amplify the region of interest for NGS analysis and serum human TTR levels were measured as described above. Results for liver editing are shown in FIG. 27A and serum human TTR levels in FIG. 27B-C.
as §1, with “guides G000480,” for “guides”, “G000486, G000499” for “G000482, G000486”, “G000502.” for “G000499.”, “1:2” for “1:1”, “Results for liver editing are shown in FIG. 27A and serum human TTR levels in FIG. 27B-C.” left out

The mark [1] stands for this setting: 1, 0.3, or 0.1 mg/kg, Cas9 mRNA (SEQ ID NO: 1) 1:1 by weight to guide, FIG. 27B-C.
Where [2] appears, read: 1, 0.3, or 0.1 mg/kg, Cas9 mRNA (SEQ ID NO: 1) 1:2 by weight to guide, FIG. 28B-C.
Setting [3] is: 1, 0.3, 0.1, or 0.03 mg/kg, Cas9 mRNA (SEQ ID NO: 1) 1:1 by weight to guide, FIG. 26B-C.

Strand notation (5' to 3'): a small letter for the sugar, then the base; units joined by * are phosphorothioate-linked, units joined directly phosphodiester-linked; [ ] holds rarer units or linkages, { } end groups; capitals alone tell only the bases. m = 2'-O-methyl; r = 2'-OH (RNA)

B1: G000486: TTR sgRNA modified sequence, Human, SEQ ID No. 93; guide sequence of CR003339 (nucleic acid)
guide: mA*mC*mA*rCrArArArUrArCrCrArGrUrCrCrArGrCrArGrUrUrUrUrArGrAmGmCmUmAmGmAmAmAmUmAmGmCrArArGrUrUrArArArArUrArArGrGrCrUrArGrUrCrCrGrUrUrArUrCrAmAmCmUmUmGmAmAmAmAmAmGmUmGmGmCmAmCmCmGmAmGmUmCmGmGmUmGmCmU*mU*mU*mU
Regarding B1, the “Serum human TTR levels, dose response” value is “A dose response for both editing and serum TTR levels was evident” under setting [1]; “A dose response for both editing and serum TTR levels was evident” under setting [2].

B2: G000481: TTR sgRNA modified sequence, Human, SEQ ID No. 88; guide sequence of CR003345 (nucleic acid)
guide: mU*mC*mU*rArGrArArCrUrUrUrGrArCrCrArUrCrArGrGrUrUrUrUrArGrAmGmCmUmAmGmAmAmAmUmAmGmCrArArGrUrUrArArArArUrArArGrGrCrUrArGrUrCrCrGrUrUrArUrCrAmAmCmUmUmGmAmAmAmAmAmGmUmGmGmCmAmCmCmGmAmGmUmCmGmGmUmGmCmU*mU*mU*mU
For B2, the “Serum TTR(% TSS)” value came out at 10.52 % TSS. The “Serum human TTR levels, dose response” value under setting [1] is “A dose response for both editing and serum TTR levels was evident”. Further, the “Serum human TTR levels, dose response” value under setting [2] is “A dose response for both editing and serum TTR levels was evident”.

B3: G000482: TTR sgRNA modified sequence, Human, SEQ ID No. 89; guide sequence of CR003365 (nucleic acid)
guide: mU*mG*mU*rArGrArArGrGrGrArUrArUrArCrArArArGrGrUrUrUrUrArGrAmGmCmUmAmGmAmAmAmUmAmGmCrArArGrUrUrArArArArUrArArGrGrCrUrArGrUrCrCrGrUrUrArUrCrAmAmCmUmUmGmAmAmAmAmAmGmUmGmGmCmAmCmCmGmAmGmUmCmGmGmUmGmCmU*mU*mU*mU
With B3, the “Serum human TTR levels, dose response” value under setting [1] is “A dose response for both editing and serum TTR levels was evident”.

B4: G000499: TTR sgRNA modified sequence, Human, SEQ ID No. 106; guide sequence of CR005303 (nucleic acid)
guide: mU*mG*mA*rArUrCrCrArArGrUrGrUrCrCrUrCrUrGrArGrUrUrUrUrArGrAmGmCmUmAmGmAmAmAmUmAmGmCrArArGrUrUrArArArArUrArArGrGrCrUrArGrUrCrCrGrUrUrArUrCrAmAmCmUmUmGmAmAmAmAmAmGmUmGmGmCmAmCmCmGmAmGmUmCmGmGmUmGmCmU*mU*mU*mU
For the molecule B4, the “Serum TTR(% TSS)” value is reported as 8.39 % TSS. Besides, under setting [1], the “Serum human TTR levels, dose response” value was “A dose response for both editing and serum TTR levels was evident”. For the same molecule, the “Serum human TTR levels, dose response” value under setting [2] was “A dose response for both editing and serum TTR levels was evident”.

B5: G000488: TTR sgRNA modified sequence, Human, SEQ ID No. 95; guide sequence of CR003346 (nucleic acid)
guide: mA*mA*mA*rGrUrUrCrUrArGrArUrGrCrUrGrUrCrCrGrGrUrUrUrUrArGrAmGmCmUmAmGmAmAmAmUmAmGmCrArArGrUrUrArArArArUrArArGrGrCrUrArGrUrCrCrGrUrUrArUrCrAmAmCmUmUmGmAmAmAmAmAmGmUmGmGmCmAmCmCmGmAmGmUmCmGmGmUmGmCmU*mU*mU*mU
Take B5: under setting [3], the “Serum human TTR levels, dose response” value is “A dose response for both editing and serum TTR levels was evident”.

B6: G000489: TTR sgRNA modified sequence, Human, SEQ ID No. 96; guide sequence of CR003344 (nucleic acid)
guide: mU*mU*mU*rGrArCrCrArUrCrArGrArGrGrArCrArCrUrGrUrUrUrUrArGrAmGmCmUmAmGmAmAmAmUmAmGmCrArArGrUrUrArArArArUrArArGrGrCrUrArGrUrCrCrGrUrUrArUrCrAmAmCmUmUmGmAmAmAmAmAmGmUmGmGmCmAmCmCmGmAmGmUmCmGmGmUmGmCmU*mU*mU*mU
For the molecule B6, the “Serum human TTR levels, dose response” value under setting [3] is “A dose response for both editing and serum TTR levels was evident”.

B7: G000502: TTR Cyno specific sgRNA modified sequence, SEQ ID No. 114; guide sequence of CR000689; cross homologous between mouse and cyno (nucleic acid)
guide: mA*mC*mA*rCrArArArUrArCrCrArGrUrCrCrArGrCrGrGrUrUrUrUrArGrAmGmCmUmAmGmAmAmAmUmAmGmCrArArGrUrUrArArArArUrArArGrGrCrUrArGrUrCrCrGrUrUrArUrCrAmAmCmUmUmGmAmAmAmAmAmGmUmGmGmCmAmCmCmGmAmGmUmCmGmGmUmGmCmU*mU*mU*mU
For the molecule B7, the “Serum human TTR levels, dose response” value under setting [3] was “A dose response for both editing and serum TTR levels was evident”; the “Serum human TTR levels, dose response” value under setting [2] is “A dose response for both editing and serum TTR levels was evident”.

B8: G000480: TTR sgRNA modified sequence, Human, SEQ ID No. 87; guide sequence of CR003353 (nucleic acid)
guide: mA*mA*mA*rGrGrCrUrGrCrUrGrArUrGrArCrArCrCrUrGrUrUrUrUrArGrAmGmCmUmAmGmAmAmAmUmAmGmCrArArGrUrUrArArArArUrArArGrGrCrUrArGrUrCrCrGrUrUrArUrCrAmAmCmUmUmGmAmAmAmAmAmGmUmGmGmCmAmCmCmGmAmGmUmCmGmGmUmGmCmU*mU*mU*mU
In the case of B8, the “Serum human TTR levels, dose response” value was “A dose response for both editing and serum TTR levels was evident” under setting [3]; “A dose response for both editing and serum TTR levels was evident” under setting [2].
